Data taken from article PMC2926940 (Nature structural & molecular biology, 2010).

T1: Abl SH2 domain, His-tagged (immobilised for SPR) (human, UniProt P00519-2)
T1 sequence: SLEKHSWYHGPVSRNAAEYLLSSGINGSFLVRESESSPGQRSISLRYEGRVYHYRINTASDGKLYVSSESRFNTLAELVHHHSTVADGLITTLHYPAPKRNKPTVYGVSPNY


Tests used:
[1] = target: Abl SH2 domain, His-tagged (immobilised for SPR) (human) (UniProt P00519); assay: SPR
[2] = target: Abl SH2 domain spotted on the SH2 microarray (human); assay: peptide or protein array
[3] = target: Abl2 (Arg) SH2 domain spotted on the SH2 microarray (UniProt P42684); assay: peptide or protein array
Abl2 (Arg) SH2 domain spotted on the SH2 microarray, sequence (P42684 173-263): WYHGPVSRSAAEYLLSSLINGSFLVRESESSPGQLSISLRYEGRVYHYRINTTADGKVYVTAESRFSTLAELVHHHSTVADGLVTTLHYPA

[4] = target: Blk SH2 domain spotted on the SH2 microarray (UniProt P51451); assay: peptide or protein array
Blk SH2 domain spotted on the SH2 microarray, sequence (P51451 124-220): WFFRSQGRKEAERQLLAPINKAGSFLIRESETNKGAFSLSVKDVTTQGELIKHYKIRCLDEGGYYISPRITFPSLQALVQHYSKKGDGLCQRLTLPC

[5] = target: Grb7 SH2 spotted on the SH2 microarray (UniProt Q14451); assay: peptide or protein array
Grb7 SH2 spotted on the SH2 microarray, sequence (Q14451 431-527): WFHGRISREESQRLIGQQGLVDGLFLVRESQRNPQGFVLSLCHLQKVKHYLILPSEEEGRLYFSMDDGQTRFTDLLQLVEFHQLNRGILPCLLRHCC

[6] = target: tandem SH2 domains of Syk spotted on the SH2 microarray; assay: peptide or protein array
[7] = target: c-Jun phosphopeptide (Homo sapiens) (UniProt P05412); conditions: cited from earlier work
c-Jun phosphopeptide (Homo sapiens), sequence (P05412 whole entry, the tested form may be a part): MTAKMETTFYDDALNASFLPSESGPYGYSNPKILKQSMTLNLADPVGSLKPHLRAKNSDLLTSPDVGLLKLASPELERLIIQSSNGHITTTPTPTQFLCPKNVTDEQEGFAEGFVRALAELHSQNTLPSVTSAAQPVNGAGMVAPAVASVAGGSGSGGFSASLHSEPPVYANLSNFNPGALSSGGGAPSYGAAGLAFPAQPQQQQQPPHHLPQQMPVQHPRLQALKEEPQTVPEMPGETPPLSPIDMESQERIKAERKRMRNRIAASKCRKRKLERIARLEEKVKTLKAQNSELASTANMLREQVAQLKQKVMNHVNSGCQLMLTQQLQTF

[8] = target: T1, Abl SH2 domain, His-tagged (immobilised …); assay: SPR

Molecule | ΔΔG of binding against HA4 [1] | ΔΔG of binding against HA4 [8] | further results
HA4 R38A (designed binder) | 2.2 kcal/mol |  | 
monobody HA4 labelled with DyLight 800 (designed binder) |  |  | Kd [2]: 22 nM; Kd [3]: 18 nM; Kd [4]: 109 nM; Kd [5]: 169 nM; Kd [6]: 28 nM
Abl SH2 (from UniProt P00519) |  |  | Kd [7]: 7000 nM
monobody HA4 (designed binder) |  |  | Kd [1]: 7 nM
HA4 E52A (designed binder) | 2.4 kcal/mol |  | 
HA4 Y35A (designed binder) | 0.8 kcal/mol |  | 
HA4 Y36A (designed binder) GSSVSSVPTKLEVVAATPTSLLISWDAPMSSSSVYAYRITYGETGGNSPVQEFTVPYSSSTATISGLSPGVDYTITVYAWGEDSAGYMFMYSPISINYRTC |  | ≥ 3.8 kcal/mol | 
HA4 W80A (designed binder) GSSVSSVPTKLEVVAATPTSLLISWDAPMSSSSVYYYRITYGETGGNSPVQEFTVPYSSSTATISGLSPGVDYTITVYAAGEDSAGYMFMYSPISINYRTC |  | ≥ 3.8 kcal/mol | 
HA4_(Y87A) (designed binder) GSSVSSVPTKLEVVAATPTSLLISWDAPMSSSSVYYYRITYGETGGNSPVQEFTVPYSSSTATISGLSPGVDYTITVYAWGEDSAGAMFMYSPISINYRTC |  | ≥ 3.8 kcal/mol | 
HA4 M88A (designed binder) GSSVSSVPTKLEVVAATPTSLLISWDAPMSSSSVYYYRITYGETGGNSPVQEFTVPYSSSTATISGLSPGVDYTITVYAWGEDSAGYAFMYSPISINYRTC |  | ≥ 3.8 kcal/mol | 
